{"source": "patent US20240358755A1", "about": "(IMMATICS BIOTECHNOLOGIES, published 2024)", "data": [{"biological_target": "T1, HLA-A*03:01 (human)", "T1 construct": "Peptide-receptive MHC class I monomer in the UV-ligand exchange assay", "experiment": "UV peptide exchange, anti-b2m ELISA; exchange yield grade", "description": "(§1) Candidate peptides for T cell based therapies according to the present invention were further tested for their MHC binding capacity (affinity). The individual peptide-MHC complexes were produced by UV-ligand exchange, where a UV-sensitive peptide is cleaved upon UV-irradiation and exchanged with the peptide of interest as analyzed. Only peptide candidates that can effectively bind and stabilize the peptide-receptive MHC molecules prevent dissociation of the MHC complexes. To determine the yield of the exchange reaction, an ELISA was performed based on the detection of the light chain (β2m) of stabilized MHC complexes. The assay was performed as generally described in Rodenko et al. (Rodenko et al., 2006).\n(§2) 96 well MAXISorp plates (NUNC) were coated over night with 2 μg/ml streptavidin in PBS at room temperature, washed 4× and blocked for 1 h at 37° C. in 2% BSA containing blocking buffer. […] Peptide-MHC monomers of the UV-exchange reaction were diluted 100-fold in blocking buffer. Samples were incubated for 1 h at 37° C., washed four times, incubated with 2 μg/ml HRP conjugated anti-β2m for 1 h at 37° C., washed again and detected with TMB solution that is stopped with […]. Absorption was measured at 450 nm.", "units": {"peptide exchange yield": "%"}, "values": [{"binder": "KVGAVVHLK", "peptide exchange yield": "50 to 75"}, {"binder": "MTYQQPFSNR", "peptide exchange yield": "≥ 75"}, {"binder": "GSLQTLPPK", "peptide exchange yield": "50 to 75"}, {"binder": "KLLLLSSVK", "peptide exchange yield": "50 to 75"}, {"binder": "KVLVDFLLK", "peptide exchange yield": "50 to 75"}, {"binder": "SMNSKALRWK", "peptide exchange yield": "50 to 75"}, {"binder": "TTLENLPQK", "peptide exchange yield": "50 to 75"}, {"binder": "ASAIPAGAK", "peptide exchange yield": "50 to 75"}, {"binder": "AILVPQPPK", "peptide exchange yield": "50 to 75"}, {"binder": "SVISVLTTPK", "peptide exchange yield": "≥ 75"}, {"binder": "AVLGALLRH", "peptide exchange yield": "≥ 75"}, {"binder": "RVIEVVMNSK", "peptide exchange yield": "≥ 75"}, {"binder": "VIYNQTLMK", "peptide exchange yield": "≥ 75"}, {"binder": "AVFVNWEQTKK", "peptide exchange yield": "≥ 75"}, {"binder": "ILQLITVNR", "peptide exchange yield": "50 to 75"}, {"binder": "LIAGLIFLK", "peptide exchange yield": "50 to 75"}, {"binder": "LLFKGLMWK", "peptide exchange yield": "≥ 75"}, {"binder": "IVFLLQQGEK", "peptide exchange yield": "50 to 75"}, {"binder": "KTIDLVIVR", "peptide exchange yield": "≥ 75"}, {"binder": "GTFIAPVMK", "peptide exchange yield": "≥ 75"}, {"binder": "KIMEILNLK", "peptide exchange yield": "≥ 75"}, {"binder": "TVTSAIVNR", "peptide exchange yield": "50 to 75"}, {"binder": "ILAASFQAR", "peptide exchange yield": "50 to 75"}, {"binder": "SLFGGLFTR", "peptide exchange yield": "≥ 75"}, {"binder": "TVATQVATSK", "peptide exchange yield": "50 to 75"}, {"binder": "AILAPPAILK", "peptide exchange yield": "≥ 75"}, {"binder": "GTVFVLLSK", "peptide exchange yield": "20 to 50"}, {"binder": "MLSAQFILK", "peptide exchange yield": "≥ 75"}, {"binder": "IIVPSFYK", "peptide exchange yield": "50 to 75"}, {"binder": "GSCSFALSR", "peptide exchange yield": "≥ 75"}, {"binder": "ETYGTFVLR", "peptide exchange yield": "50 to 75"}, {"binder": "VIFLHQPPK", "peptide exchange yield": "≥ 75"}, {"binder": "SLIPIVPFKS", "peptide exchange yield": "20 to 50"}, {"binder": "SVYMATTLK", "peptide exchange yield": "≥ 75"}, {"binder": "VVRASSGLK", "peptide exchange yield": "50 to 75"}, {"binder": "RIVTYIVAK", "peptide exchange yield": "50 to 75"}, {"binder": "ATNSFLLIK", "peptide exchange yield": "≥ 75"}, {"binder": "ALAQGANLK", "peptide exchange yield": "50 to 75"}, {"binder": "ILAPPAILK", "peptide exchange yield": "≥ 75"}, {"binder": "TLLSFKTVLFK", "peptide exchange yield": "≥ 75"}, {"binder": "TTAAVYILK", "peptide exchange yield": "50 to 75"}, {"binder": "MIFSGVFLR", "peptide exchange yield": "≥ 75"}, {"binder": "LSGPVTFLR", "peptide exchange yield": "50 to 75"}, {"binder": "LIYIPTNSIYK", "peptide exchange yield": "≥ 75"}, {"binder": "LALLGAPPPK", "peptide exchange yield": "20 to 50"}, {"binder": "SVFSLVHLFDK", "peptide exchange yield": "≥ 75"}, {"binder": "RILEVVRQPK", "peptide exchange yield": "≥ 75"}, {"binder": "STQSSLLYLK", "peptide exchange yield": "50 to 75"}, {"binder": "RTLPLEGSPK", "peptide exchange yield": "50 to 75"}, {"binder": "AVVSHFILY", "peptide exchange yield": "50 to 75"}, {"binder": "AVFLGNPSNQK", "peptide exchange yield": "≥ 75"}, {"binder": "AILLPQLPK", "peptide exchange yield": "≥ 75"}, {"binder": "SLATAISAK", "peptide exchange yield": "50 to 75"}, {"binder": "GVCSTLTIK", "peptide exchange yield": "≥ 75"}, {"binder": "ATLQAVTLYKK", "peptide exchange yield": "≥ 75"}, {"binder": "SLFPYFLNK", "peptide exchange yield": "≥ 75"}, {"binder": "KLIAGLIFLK", "peptide exchange yield": "50 to 75"}, {"binder": "MVNWSLTNK", "peptide exchange yield": "≥ 75"}, {"binder": "RLYSGSSFLY", "peptide exchange yield": "≥ 75"}, {"binder": "MTFVPLLAR", "peptide exchange yield": "≥ 75"}, {"binder": "RLCPAAPTGK", "peptide exchange yield": "≥ 75"}]}, {"biological_target": "T2, HLA-B*07:02 (human)", "T2 construct": "Peptide-receptive monomer in the UV-ligand exchange assay", "experiment": "UV peptide exchange, anti-b2m ELISA; exchange yield grade", "description": "as §1, §2", "units": {"peptide exchange yield": "%"}, "values": [{"binder": "AVDLGVLEL", "peptide exchange yield": "50 to 75"}, {"binder": "APQPRSLAA", "peptide exchange yield": "≥ 75"}, {"binder": "SPVSASWIL", "peptide exchange yield": "≥ 75"}, {"binder": "SPLPHLGPL", "peptide exchange yield": "50 to 75"}, {"binder": "MPANFETIGF", "peptide exchange yield": "≥ 75"}, {"binder": "LPTRSLPAF", "peptide exchange yield": "50 to 75"}, {"binder": "SPVETRSLL", "peptide exchange yield": "50 to 75"}]}]}
